For one substance, stoichiometry N results are on record in doi:10.1101/089938.

The assay addresses Alanine racemase (Alr) from Streptomyces coelicolor A3(2), His6-tagged (Streptomyces coelicolor A3(2)) (UniProt O86786). In words: SEC. Background: SEC sorts molecules by how far they enter the pores of the column.

Broadly, the stoichiometry N is a count of units in the complex or per binding partner.

“Alanine racemase (Alr) from Streptomyces coelicolor A3(2), His6-tagged (from UniProt O86786 1-391) (enzyme)” registered a stoichiometry N of 2.
